Laboratory results published in patent publication US20250326851A1 (Bayer, published 2025).
“And” between values parts separate entries of the source, which are not always exact repeats. Identical values can stand only once.

T1: mouse CCR8 on HEK293 cells (mouse, UniProt P56484 1-353)
T1 sequence (looked up): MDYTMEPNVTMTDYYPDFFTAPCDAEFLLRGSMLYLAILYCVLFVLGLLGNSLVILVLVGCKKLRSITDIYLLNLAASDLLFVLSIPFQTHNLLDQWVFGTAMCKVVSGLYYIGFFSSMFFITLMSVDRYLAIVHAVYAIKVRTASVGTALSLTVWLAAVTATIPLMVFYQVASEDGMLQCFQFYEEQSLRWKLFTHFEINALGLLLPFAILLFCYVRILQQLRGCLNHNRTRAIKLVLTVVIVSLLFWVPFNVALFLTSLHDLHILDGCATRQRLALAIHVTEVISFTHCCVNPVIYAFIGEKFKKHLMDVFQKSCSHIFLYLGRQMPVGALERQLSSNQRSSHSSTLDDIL

T2: Mouse FcRn (mouse, UniProt Q61559 22-297; P01887 21-119)
T2 construct: also called mFcRn; murine FcRn
T2 sequence (looked up) 1: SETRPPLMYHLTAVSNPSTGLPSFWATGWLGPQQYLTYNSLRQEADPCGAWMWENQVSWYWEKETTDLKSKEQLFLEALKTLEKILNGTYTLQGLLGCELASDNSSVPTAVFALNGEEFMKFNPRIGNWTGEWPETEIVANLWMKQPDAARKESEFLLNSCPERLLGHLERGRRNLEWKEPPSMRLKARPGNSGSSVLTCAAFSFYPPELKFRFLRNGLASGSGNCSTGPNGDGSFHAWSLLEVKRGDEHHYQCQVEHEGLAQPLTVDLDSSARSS
T2 sequence (looked up) 2: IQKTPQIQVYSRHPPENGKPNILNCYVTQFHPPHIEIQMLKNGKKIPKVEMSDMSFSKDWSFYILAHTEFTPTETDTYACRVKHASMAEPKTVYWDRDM

T3: Mouse FcγRIV/CD16-2 (mouse, UniProt A0A0B4J1G0 21-203)
T3 construct: also called mFcγR variant
T3 sequence: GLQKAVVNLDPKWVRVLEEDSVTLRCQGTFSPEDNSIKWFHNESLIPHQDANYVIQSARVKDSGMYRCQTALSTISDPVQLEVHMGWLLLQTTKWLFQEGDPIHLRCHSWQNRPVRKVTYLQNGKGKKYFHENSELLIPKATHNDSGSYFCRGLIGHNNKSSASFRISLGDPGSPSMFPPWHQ


Tests used:
[1] = molecular target: T1, mouse CCR8 on HEK293 cells; test: cell-based or functional assay
[2] = molecular target: T1, mouse CCR8 on HEK293 cells; test: flow cytometry on murine CCR8-transfected HEK293 cells
Protocol: (§1) The binding properties of murine surrogate antibodies were assessed using flow cytometry on HEK293 cells ectopically expressing murine CCR8.

[3] = molecular target: T1, mouse CCR8 on HEK293 cells; test: cell-based or functional assay; remark: listed apart in the source
human CCR8 [4] = molecular target: T4, human CCR8 (human, UniProt P51685 1-355); test: cell-based or functional assay
human CCR8 [5] = molecular target: T4, human CCR8; test: cell-based or functional assay; remark: listed apart in the source
human CCR8 [6] = molecular target: T4, human CCR8; test: flow cytometry using HEK293 cells, 0.0046 to 10 µg/mL (selectivity study)
[7] = molecular target: T1, mouse CCR8 on HEK293 cells; test: flow cytometry, mouse CCR8-expressing HEK293 cells; reference TPP-15285
Protocol: as §1

Mouse FcγRIIIB/CD16b = molecular target: T5, Mouse FcγRIIIB/CD16b (mouse); test: SPR; approximation, saturation not reached
T5 construct: The printed name is that of a human receptor; kept as printed; also called mFcγR variant
Protocol: (§2) The binding of murine surrogate antibodies to mouse Fc receptor variants (mFcγR and mFcRn) was analyzed by SPR.

[8] = molecular target: T6, Mouse FcγRIIA/CD32a (R167) (mouse); test: SPR; approximation, saturation not reached
T6 construct: The printed name is that of a human receptor allotype; kept as printed; also called mFcγR variant
Protocol: as §2

Mouse FcRn = molecular target: T2, Mouse FcRn; test: SPR
Protocol: as §2

Mouse FcγRIV/CD16-2 = molecular target: T3, Mouse FcγRIV/CD16-2; test: SPR
Protocol: as §2

T4 sequence (P51685 whole entry): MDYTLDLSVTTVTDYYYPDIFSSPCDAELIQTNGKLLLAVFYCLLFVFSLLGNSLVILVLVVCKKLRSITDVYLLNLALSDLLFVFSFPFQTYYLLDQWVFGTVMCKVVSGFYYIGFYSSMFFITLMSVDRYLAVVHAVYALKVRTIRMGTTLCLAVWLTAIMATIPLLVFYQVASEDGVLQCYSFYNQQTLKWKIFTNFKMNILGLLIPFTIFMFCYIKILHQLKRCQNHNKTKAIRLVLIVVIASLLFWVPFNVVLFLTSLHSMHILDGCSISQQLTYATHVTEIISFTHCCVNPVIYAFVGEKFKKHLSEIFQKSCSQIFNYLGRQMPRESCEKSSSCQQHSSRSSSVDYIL

cumulative ADCP EC50 (ng/mL), 4 hours; mouse CCR8-expressing HEK293 cells, mouse M2 macrophages [1] [ng/mL]	cumulative ADCP EC50 (ng/mL), 12 hours; mouse CCR8-expressing HEK293 cells, mouse M2 macrophages [1] [ng/mL]	cumulative ADCP EC50 (pM), 4 hours; mouse CCR8-expressing HEK293 cells, mouse M2 macrophages [1] [pM]	cumulative ADCP EC50 (pM), 12 hours; mouse CCR8-expressing HEK293 cells, mouse M2 macrophages [1] [pM]	EC50 [2]	ADCC EC50 (ng/mL) at 20 hours; mouse CCR8-expressing HEK293 cells, mouse NK cells [3] [ng/mL]	ADCC EC50 (pM) at 20 hours; mouse CCR8-expressing HEK293 cells, mouse NK cells [3] [pM]	ADCC EC50; HEK-hCCR8 target cells, NK92V effector cells (human CCR8 [4]) [nM]	ADCC EC50; Tregs, donor 1100 (85.0% CCR8 expression), NK92V effector cells (human CCR8 [4]) [nM]	ADCC EC50; Tregs, donor 1163 (31.4% CCR8 expression), NK92V effector cells (human CCR8 [4]) [nM]	ADCP EC50; Tregs, donor 1100 (63% CCR8 expression), human M2c macrophages (human CCR8 [5]) [nM]	ADCP EC50; Tregs, donor 1163 (40% CCR8 expression), human M2c macrophages (human CCR8 [5]) [nM]	EC50 (human CCR8 [6]) [µg/mL]	fold higher affinity compared to TPP-15825 [7] [fold]	Kd (Mouse FcγRIIIB/CD16b) [nM]	Kd [8] [nM]	Kd (Mouse FcγRIV/CD16-2) [nM]	Binder	binding result (Mouse FcRn)
54.5	22.7	380	158	12.5 nM and 1.8 µg/mL	32.6	227											TPP-15285 (normal half-life) (antibody, V domains shown, Anti-mouse CCR8 antibody, human VH/VL chimerized to mIgG2a (lambda)) VH: EVQLLESGGGLVQPGGSLRLSCAASGFTFSDYGVHWVRQAPGKGLEWVSGVSWNGSRTHYADSVKGRFTISRDNSKNTLYLQMNSLRAEDTAVYYCVTRGAWGQGTLVTVSS VL: not shown	
							0.0128	0.0281	0.0559	0.143	0.44	0.129					TPP-23411 (afucosylated) (antibody, human IgG1, lambda, V domains shown, afucosylated Fc glycan, Fully human IgG1 lambda; In the ADA bridging assay it was biotinylated or SULFO-tagged; also called 21360-hIgG1wtlambda; anti-human CCR8 antibody hIgG1 isotype (afucosylated)) VH: EVQLLESGGGLVQPGGSLRLSCAASGFTFSSYGMHWVRQAPGKGLEWVSAINWNGGSTGYADSVKGRFTISRDNSKNTLYLQMNSLRAEDTAVYYCARGHHSGYDGRFFDYWGQGTLVTVSS VL: QSVLTQPPSVSGAPGQRVTISCTGSSSNIGAGYNVHWYQQLPGTAPKLLIYTNNRRPSGVPDRFSGSKSGTSASLAISGLRSEDEADYYCAAWDASLSGWVFGGGTKLTVLG	
							0.0702			0.155	0.148						TPP-23411 (wild-type) (antibody, human IgG1, lambda, V domains shown, conventional (fucosylated) glycosylation) VH: EVQLLESGGGLVQPGGSLRLSCAASGFTFSSYGMHWVRQAPGKGLEWVSAINWNGGSTGYADSVKGRFTISRDNSKNTLYLQMNSLRAEDTAVYYCARGHHSGYDGRFFDYWGQGTLVTVSS VL: QSVLTQPPSVSGAPGQRVTISCTGSSSNIGAGYNVHWYQQLPGTAPKLLIYTNNRRPSGVPDRFSGSKSGTSASLAISGLRSEDEADYYCAAWDASLSGWVFGGGTKLTVLG	
74.3	28.3	518	197	0.495 nM and 0.071 µg/mL	1.33	9.28							10	~19000	~12000	1400	TPP-29338 (short half-life) (antibody, mouse IgG2a) heavy: EVQLLESGGGLVQPGGSLRLSCAASGFTFSDYGVHWVRQAPGKGLEWVSGVSWNGSRTHYADSVKGRFTISRDNSKNTLYLQMNSLRAEDTAVYYCVTRGAWGQGTLVTVSSAKTTAPSVYPLAPVCGDTTGSSVTLGCLVKGYFPEPVTLTWNSGSLSSGVHTFPAVLQSDLYTLSSSVTVTSSTWPSQSITCNVAHPASSTKVDKKIEPRGPTIKPCPPCKCPAPNLLGGPSVFIFPPKIKDVLMISLSPIVTCVVVDVSEDDPDVQISWFVNNVEVHTAQTQTHREDYNSTLRVVSALPIQANDWMSGKEFKCKVNNKDLPAPIERTISKPKGSVRAPQVYVLPPPEEEMTKKQVTLTCMVTDFMPEDIYVEWTNNGKTELNYKNTEPVLDSDGSYFMYSKLRVEKKNWVERNSYSCSVVHEGLAQHHTTKSFSRTPGK light: QSVLTQPPSASGTPGQRVTISCSGSSFNIGSHFVYWYQQLPGTAPKLLIYKNNQRPSGVPDRFSGSKSGTSASLAISGLRSEDEADYYCAAWDDSLNGPVFGGGTKLTVLGQPKSSPSVTLFPPSSEELETNKATLVCTITDFYPGVVTVDWKVDGTPVTQGMETTQPSKQSNNKYMASSYLTLTARAWERHSSYSCQVTHEGHTVEKSLSRADCS	no binding (tested: 15.6 to 2,000 nM (FcRn assay))
